Consider 21 molecules from US20220073643A1.

The assay concerns the target Claudin18.2-His protein (human). The assay is described as follows: indirect ELISA on coated Claudin18.2-His. In general terms: An ELISA detects its analyte on a solid surface through an enzyme-linked reagent.

B1: 420D5H5 (antibody, V domains shown)
VH: DVQLVESGGGLVQPGGSRKLSCAASGFTLSGFGMHWIRQTPEKGLEWVAYISSGSRPIYYVDTVEGRFTISRDNPKNTLFLQMTSLRSEDTAMYFCARFYYGNSFDHWGQGTLVTVSS
VL: DIVMTQSPSFLTVTAGEKVTMSCKSSQSLLNSGNQKNYLTWYQQKPGQPPKLLIYWASTRESGVPDRFTGSGSGTDFTLTIRGVQAEDLALYYCQNAYSFPLTFGAGTKLELK
The molecule B1 gave an EC50 of 0.0239 µg/mL.

B2: 420F12G8 (antibody, V domains shown)
VH: DVQLVESGGGLVQPGGSRKLSCAASGFAFSGFGMHWIRQTPEKGLEWVAYISSGSRPIYYADTVKGRFTISRDNPKNTLFLQMTSLRSEDTAMYFCVRFYYGNSFDHWGQGTLVTVSA
VL: DIVMTQSPSFLTVTAGEKVTMTCRSSQNLLNSGNQKNYLTWYQQKPGQPPKLLISWASTRESGVPDRFTGSGSGTDFTLTISSVQPEDLALYYCQNAYSFPFTFGAGTKLELK
In the case of B2, the EC50 is 0.0176 µg/mL.

B3: 425C6D3 (antibody, V domains shown)
VH: DVQLVESGGGLVQPGGSRKLSCAASGFTFSGFGMHWIRQTPEKGLEWVAYISSGSRPIYYADTVQGRFTISRDNPKNTLFLQMTSLRSEDTAMYFCARFYYGNSFDHWGQGTLVTVSS
VL: DIVMTQSPSFLTVTAGEKVTMSCKSSQSLLNSGNQKNYLTWYQQKPGQPPKLLIYWASTRESGVPDRFTGSGSGTDFTLTISSVQAEDLALYYCQNAYSFPLTFGAGTKLELK
B3: the EC50 turned out to be 0.0114 µg/mL.

B4: 420H3H9 (antibody, V domains shown)
VH: DVQLVESGGGLVQPGGSRKLSCAASGFTFSSFGMHWVRQAPEKGLEWVAYISSGSSTIYYAHSVKGRFTISRDNPKNTLFLQMTSLGSEDTAMYYCARFYYGNSFAYWGQGTLVTVSA
VL: DIVMTQSPSSLTVTAGEKVTLSCKSSQSLLNSGNQKNYLTWYQQKPGQPPKMLIYWASTRESGVPDRFTGSGSGTDFTLTISSVQAEDLADYYCQNAYTYPLTFGAGTRLELK
With B4, the EC50 was 0.00722 µg/mL.

B5: 203A6D5 (antibody, V domains shown)
VH: QVQLKQSGPGLVQPSQSLSITCTVSGFSLTRYGVHWVRQSPGKGLEWLGVIWSGGNTDYNAAFISRLNIRKDNSKSQVFFKMNSLKPNDTAIYYCARAAYFGNSFDYWGQGTTLTVSS
VL: DIVMTQSPSSLPVTAGEKVTMSCKSSQSLLNSGNQKNYLTWYQQKPGQPPKLLIYWASTRDSGVPDRFTGSGSGTDFTLTISSVQAEDLAVYYCQNNYIYPLTFGAGTKLELK
Molecule B5 displayed an EC50 of 0.0271 µg/mL.

B6: 430B3F1 (antibody, V domains shown)
VH: DVQLVESGGGLVQPGGSRKLSCAASGFTFSGFGMHWIRQTPEKGLEWVAYISSGGRPIYYADTVQGRFTISRDNPKNTLFLQMTSLRSEDTAMYFCARFYYGNSFDHWGQGTLVTISS
VL: DIVMTQSPSFLTVTAGEKVTMSCKSSQSLLNSGNQKNYLTWYQQKPGQPPKLLIYWASTRESGVPDRFTGSGSGTDFTLTISSVQAEDLALYYCQNAYSFPLTFGAGTKLELK
In the case of B6, the EC50 worked out at 0.0154 µg/mL.

B7: 422F4B6 (antibody, V domains shown)
VH: DVQLVESGGGLVQPGGSRKLSCAASGFSFSSFGMHWVRQAPEKGLEWVAYISSGSSPIYYADTVKGRFIISRDNPKNTLFLQMTSLRSEDTAMYFCARIYYGNSFAYWGQGTLVTVSA
VL: DIVMTQSPSSLTVTAGEKVTMSCKSSQTLLNSGNQKNYLTWYQQKPGQPPKLLIYWASTRESGVPDRFTGSGSGTDFTLTISSVQAEDLAVYYCQNAYSYPLTFGSGTKLELK
Take B7: the EC50 stood at 0.149 µg/mL.

B8: 421H4G3 (antibody, V domains shown)
VH: DVQLVESGGGLVQPGGSRKLSCAASGFSFSGFGLHWIRQTPEKGLEWVAYISSGSRPIYYADTVKGRFTISRDNPKNTLFLQMTSLRSEDTAMYFCARFYFGNSFDHWGQGTLVTVST
VL: DIVMTQSPSFLTVTAGEKVTMSCRSSQSLLNSGNQRNYLTWYQQKPGQPPKLLIYWASTRESGVPDRFTGSGSGTDFTLTINSVQAEDLALYYCQNAYSFPLTFGAGTKLELK
In the case of B8, the EC50 was determined as 0.00753 µg/mL.

B9: 422E8F9 (antibody, V domains shown)
VH: DVQLVESGGGLVQPGGSRKLSCAASGFTFSGFGMHWIRQTPEKGLEWVAYISSGSRPIYYADTVQGRFTISRDNPKNTLFLQMTSLRSEDTAMYFCARFYYGNSFDHWGQGTLVTVSS
VL: DIVMTQSPSFLTVTAGEKVTMSCKSSQSLLNSGNQKNYLTWYQQKPGQPPKLLIYWASTRESGVPDRFTGSGSGTDFTLTISSVQAEDLALYYCQNAYSFPLTFGAGTKLELK
Molecule B9 yielded an EC50 of 0.00873 µg/mL.

B10: 426H6E11 (antibody, V domains shown)
VH: DVQLVESGGGLVQPGGSRKLSCAASGFTFSGFGMHWIRQTPEKGLEWVAYISSGSRPIYYADTVQGRFTISRDNPKNTLFLQMTSLRSEDTAMYFCARFYYGNSFDHWGQGTLVTVSS
VL: DIVMTQFPSFLTVTAGEKVTMSCKSSQTLLNSGNQKNYLTWYQQKPGQPPKLLIYWASTRESGVPDRFTGSGSGTDFTLTISSVQAEDLALYYCQNAYSFPLTFGAGTNLELK
On to B10, for which the half-maximal effective concentration (EC50) came out at 0.0224 µg/mL.

B11: 420G10G3 (antibody, V domains shown)
VH: DVQLVESGGGLVQPGGSRKLSCAASGFTFSGFGMHWIRQTAEKGLEWVAYISSGSRPIYYADTVQGRFTISRDNPKNTLFLQMTSLRSEDTAMYFCARFYYGNSFDHWGQGTLVTVSA
VL: DIVMTQSPSFLTVTAGEKVTMSCKSSQSLLNSGNQKNYLTWYQQKPGQPPKLLIYWASTRESGVPDRFTGSGSGTDFTLTISSVQAEDLALYYCQNAYSFPLTFGAGTKLELK
With B11, the concentration for a half-maximal effect (EC50) worked out at 0.0113 µg/mL.

B12: 426D9F6 (antibody, V domains shown)
VH: DVQLVESGGGLVQPGGSRKLSCAASGFTFSGFGMHWIRQTPEKGLEWVAYISSGSRPIYYADTVKGRFTISRDNPKNTLFLQMTSLRSEDTAMYFCARFYYGNSFDHWGQGTLVTVSA
VL: DIVMTQSPSFLTVTAGEKVTMSCKSSQSLLNSGNQRNYLTWYQQKPGQPPKLLIYWASTRESGVPDRFTGSGSGTDFTLTVSSVQAEDLALYYCQNAYSFPLTFGAGTKLELK
In turn, B12 had an EC50 of 0.0112 µg/mL.

B13: 425B3D5 (antibody, V domains shown)
VH: DVQLVESGGGLVQPGGSRKLSCAASGFTFSGFGMHWIRQTPEKGLEWVAYISSGSRPIYYADTVQGRFTISRDNPKNTLFLQMTSLRSEDTAMYFCARFYYGNSFDHWGQGTLVTVSS
VL: DIVMTQSPSFLTVTAGEKVTMSCKSSQSLLNSGNQKNYLTWYQQKPGQPPKLLIYWASTRESGVPDRFTGSGSGTDFTLTISSVQAEDLALYYCQNAYSFPLTFGAGTKLELK
B13 displayed an EC50 of 0.0037 µg/mL.

B14: 61H12G10 (antibody, V domains shown)
VH: QVQLKESGPGLVAPSQSLSITCTVSGFSLTDYGVSWIRQPPGKGLEWLGVIWGGGSTYYNSALKSRLIISKDNSKSQVFLKMNSLQTDDTAIYYCAKHHYGNACDYWGQGTTLTVSS
VL: DIVMTQSPSSLTVTAGEKVTMSCKSSQSLFNSGNLKNYLTWYQQKPGQPPKLLICWASTRESGVPDRFTGSGSGTEFTLTISSVQAEDLAVYYCQNDYSYPFTFGSGTKLEIK
B14: the EC50 came out at 0.0351 µg/mL.

B15: 69D5C1 (antibody, V domains shown)
VH: EVKLVESGGGLVQPGGSRKLSCAASGFTFRDYGMAWVRQAPGKGPEWITFISNLAYSIYYADTVTGRFTISTENAKNTLYLEMSSLRSEDTAMYYCAVIYYGNSFAYWGQGTLVTV
VL: DIVLTQSPSSLTVTAGEKVTMSCKSSQSLLNSGNLRNYLTWYQQKPGQPPKLLIYWASTRESGVPDRFTGSGSGTDFTLTISSLQAEDLAIYYCQNGYSYPFTFGSGTKLEIK
Molecule B15 had an EC50 of 0.00266 µg/mL.

B16: 207F8G5 (antibody, V domains shown)
VH: QAYLQQSGAELVRSGASVKMSCKASGFTFTSYNIHWVKQTPGQGLEWIGYISPGNGGSNYNLKFKDKATLTSATSSSTAYMQISSLTSEDSAVYFCATGRGFAYWGQGTLVTVSA
VL: DIVMTQSPSSLTVTPGEKVTMSCKSSQSLFNSGNQKNYLIWYQQKPGQPPKLLIYRASTRDSGVPDRFTGSGSGTDFTLTISNVQAEDLAIYYCQNDYSYPLTFGAGTKLELK
With B16, the half-maximal effective concentration (EC50) came to 0.0335 µg/mL.

B17: 217D9G2 (antibody, V domains shown)
VH: QAYLQQSGAELVRSGASVKMSCKASGFTFTSYNIHWVKQTPGQGLEWIGYISPGNGGSNYNLNFKDKATLTAATSSTTAYMQISSLTSEDSAVYFCATGRGFAYWGQGTLVTVSA
VL: DIVMTQSPSSLTVTPGEKVTMSCRSSQSLFNSGNQKNYLIWYQQKPGQPPKLLIYRASTRDSGVPDRFTGSGSGTDFTLTISNVQAEDLAVYYCQNDYSYPLTFGAGTKLELK
With B17, the EC50 worked out at 0.028 µg/mL.

B18: 35E8D2 (antibody, V domains shown)
VH: QIQLVQSGPELKKPGETVRISCKASGYTFTTAGMQWVQKMPGKGLKWIGWINTHSRVPNFAEDFKGRFAFSLETSARIAYLQISNIKNEDMATYFCARLGKGNTMDFWGQGTSVTVSS
VL: DIVMTQSPSSLTVTVGEKVTMSCKSSQSLLNSGNQKNYLTWYQQKPGQPPKLLIYWASTRESGVPDRFTGSGSETDFTLTISSLQAEDLAVYYCQNSYSFPLTFGGGTNLEIK
B18 came in with an EC50 of 0.00319 µg/mL.

B19: 424G9G3 (antibody, V domains shown)
VH: QVQLQQSGPEVVRPGASVKMSCKGSGYTLNNFWMHWVKQRPGQGLEWIGMIDTSNGETRLNQIFKDKATLTVDKSSKTAYMQLSSLTSEDSAVYYCAPYGNFADWGQGTTLTVSS
VL: DVLLTQTPLSLPVSLGDQASISCRSSQSIVYGNGNTYLEWYLQKPGQSPKLLIYKVSSRFSGVPDRFSGSGSGTDFTLKITKVEAEDLGVYYCFQGSHVPFTFGSGTKLEIK
B19 yielded an EC50 of 0.03 µg/mL.

B20: 420H7E6 (antibody, V domains shown)
VH: DVQLVESGGGLVQPGGSRKLSCVTSGFTFSSFGMHWIRQAPEKGLEWVAFISGGGSPIFYADSVKGRFTVSRDNPKNTLFLQMTGLRSEDTAMYFCARFYFGNSFAYWGQGTLVTVSA
VL: DIVMAQSPSSLTVTAGEKVTMNCRSSQSLFNSGNQKNYLTWYQQKPGQPPKLLIYWASTRESGVPVRFTGSGSGTDFTLTISSVQAEDLAVYYCQTGFSYPLTFGPGTKLELK
Take B20: the EC50 was found to be 0.0545 µg/mL.

B21: 423C10E1 (antibody, V domains shown)
VH: DVQLVESGGGLVQPGGSRKLSCVTSGFTFSSFGMHWVRQAPEKGLEWVAFISGGGSPIFYADSVKGRFTVSRDNPKNTLFLQMTGLRSEDTAMYFCARFYFGNSFAYWGQGTLVTVSA
VL: DIVMTQSPSSLTVTAGEKVTMNCRSSQSLFNSGNQKNYLTWYQQKPGQSPKLLIYWASTRESGVPVRFTGSGSGTDFTLTISSVQAEDLAVYYCQTSFNYPLTFGPGTKLELK
As to B21, the EC50 was determined as 0.0297 µg/mL.

A word on the EC50: it is the concentration needed to bring the measured effect to its halfway point.
